Substrate in the series: CCCCCCCCCCCCCC(=O)SCCNC(=O)CCNC(=O)[C@H](O)C(C)(C)COP(=O)(O)OP(=O)(O)OC[C@H]1O[C@@H](n2cnc3c(N)ncnc32)[C@H](O)[C@@H]1OP(=O)(O)O
Briefly: purified protein.

B1: B. malayi NMT (BmNMT, myristoyl-CoA:protein N-myristoyltransferase) (Brugia malayi) (protein)
chain: MKEPPAGNIKLDDEDEKMMAAGNSKMDQNNDKENDAGDESIQNVTGRNSPTAVIDLKELTESTLMKKFEMLTVGGTSAAKHITEAQRHKYLFWDTQPVPKINEMVTENRAIEPPLDISEVREEPFSLPDPFCWCDIEINSVKELTELYTLLTENYVEDDDNMFRFDYSPEFLLWALKAPGWMKNWHCGVRAKSNGKLIAFISAIPSVIRVYDKQIKMVEINFLCVHKKLRSKRVAPVLIREITRRVNREGIFQAVFTAGVVLPKPIATCRYWHRSLNPKKLIEVKFSHLSRKMTMQRTLKLYKLPDHPRTANLVPMKKCHIDGAYGLLQCYLKKFDLSPQFTRADFEHFFMPREDVIYSYVALNEEDSKVSDLISFYSLPSSVMHHPQYKSIRAAYSFYNVATSVTLKQLINDALILARNCGFDVFNALDLMDNKEILEDLKFGIGDGNLQYYLYNWKCPDIIPEKIGLVLQ
For B1, the Km is on record as 4.4 µM.

B2: C. elegans NMT (CeNMT, myristoyl-CoA:protein N-myristoyltransferase) (Caenorhabditis elegans) (protein)
chain: MSHGHSHDGAPCGGHHGDDGAGGSRPSVNDVQALVDQLRLAGVDVSNMPNIPTAPRDMDEARSKSFQFWSTQPVPQMDETVPADVNCAIEENIALDKVRAEPFSLPAGFRWSNVDLSDEEQLNELYNLLTRNYVEDDDSMFRFDYSADFLKWALQVPGFRPEWHCGVRADSNNRLLAFIGAVPQTVRVYDKTVNMVEINFLCVHKNLRSRRVAPVLIREITRRVNVTGIFQAAFTAGIVIPKPVSVCRYYHRSLNPRKLIDVRFSHLSAKMTMARTIKLYKLPEETATRNLREMKSTDVPQVFKLLTTSLKQYSLAPVYNSEEELAHALVPKKGVVYSYVAENQNGKITDFVSFYSLPSTVMGHTTHKTIYAAYLYYYVAGSVTPKQLINDSLILANREKFDVFNALDLMHNEKIFSDLKFGKGDGNLQYYLYNWKCADMKPSQIGLVLQ
In the case of B2, the Michaelis-Menten constant (Km) was found to be 12.2 µM.

Broadly, the Km is the concentration of substrate that gives half-maximal velocity.

(Values after PMC4154664.)
